Results from US20220403001A1, “PDE5 DERIVED REGULATORY CONSTRUCTS AND METHODS OF USE IN IMMUNOTHERAPY” (Obsidian Therapeutics, Inc., priority 2018, published 2022).

Legend:
hPDE5 mutants [1] = assay: GFP MFI by FACS in HCT116 cells transduced with hPDE5 constructs; type: cell-based, human; details: for Sildenafil Destabilizing mutation coefficient / Vardenafil Destabilizing mutation coefficient / GFP by FACS, Sildenafil 0 μM (DMSO) / GFP by FACS, Vardenafil 0 μM (DMSO): hotspot constructs; for Sildenafil Destabilizing mutation coefficient: DMSO control of Sildenafil; for Sildenafil Destabilizing mutation coefficient / Vardenafil Destabilizing mutation coefficient: vs OT-001075; for Vardenafil Destabilizing mutation coefficient: DMSO control of Vardenafil; for GFP by FACS, Sildenafil 0 μM (DMSO): HCT116, DMSO control of Sildenafil; for GFP by FACS, Vardenafil 0 μM (DMSO): HCT116, DMSO control of Vardenafil; for MFI: 48 hours, HCT 116 cells
Protocol: (§1) Desirable qualities of a DD include, low expression of the SRE in the absence of ligand and ligand dependent stabilization of the SRE. Constructs were generated using DDs linked to GFP using an SG linker. […] The mean fluorescence intensity (MFI) of GFP was analyzed by FACS. […] Destabilizing mutation coefficient less than 1 are desirable.
(§2) Mean fluorescence intensity (MFI) was measured by FACS. […] Destabilizing mutation coefficient ratios less than 1 are desirable.
(§3) Mean fluorescence intensity (MFI) was measured by FACS. […] Destabilizing mutation co-efficient ratios less than 1 are desirable.
(§4) Mean fluorescence intensity (MFI) was measured by FACS. […] Destabilizing mutation coefficient less than 1 are desirable.
as §4
(§5) Mean fluorescence intensity (MFI) of GFP was measured by FACS.
(§6) Mean fluorescence intensity (MFI) was measured by FACS.
(§7) The media containing the ligand was removed and fresh media without the ligand was added.
(§8) The properties of the DDs were analyzed in the presence and absence of ligands via FACS as previously described.
(§9) GFP fluorescence was measured by FACS.
(§10) The properties of the DDs were analyzed via FACS both in the presence and absence of ligands.
as §9

hPDE5 mutants [2] = molecular target: T1, hPDE5 mutants (Homo sapiens, UniProt O76074); assay: as above; type: cell-based; details: for Vardenafil Stabilization ratio / Sildenafil Stabilization ratio / GFP by FACS, Sildenafil 10 μM / GFP by FACS, Vardenafil 1 μM: hotspot constructs; for Vardenafil Stabilization ratio: 1 μM Vardenafil; for Sildenafil Stabilization ratio: 10 μM Sildenafil; for GFP by FACS, Sildenafil 10 μM / GFP by FACS, Vardenafil 1 μM: HCT116
Protocol: as §1, §2, §3, §4, §4, §5, §6, §7, §8, §9, §10, §9

hPDE5 mutants [3] = molecular target: T1, hPDE5 mutants; assay: Western blot of AcGFP/GFP protein levels in HCT 116 cells expressing hPDE5 mutants; type: cell-based; set-up: GFP protein levels (western blot); fused on or other part: AcGFP reporter through a linker; details: vardenafil vs DMSO, HCT 116, R732 mutants
Protocol: Protein expression analysis of the combination mutants was performed in parallel via western blot. […] GAPDH levels were also analyzed to ensure even protein loading.

[4] = Table 44, Vardenafil 0.01 μM, 48 h, HCT 116
[5] = Table 44, Vardenafil 0.04 μM, 48 h, HCT 116
[6] = Table 44, Vardenafil 3.33 μM, 48 h, HCT 116
[7] = Table 44, Vardenafil 10 μM, 48 h, HCT 116
[8] = Table 44, Vardenafil 30 μM, 48 h, HCT 116
[9] = Table 44, Vardenafil 1000 μM, 48 h, HCT 116
[10] = Table 45, Sildenafil 0.01 μM, 48 h, HCT 116
[11] = Table 45, Sildenafil 0.04 μM, 48 h, HCT 116
[12] = Table 45, Sildenafil 3.33 μM, 48 h, HCT 116
[13] = Table 45, Sildenafil 10 μM, 48 h, HCT 116
[14] = Table 45, Sildenafil 30 μM, 48 h, HCT 116
[15] = Table 45, Sildenafil 1000 μM, 48 h, HCT 116
[16] = Tadalafil 0.01 μM, 48 hours, HCT 116 cells

| Substance | Sildenafil Destabilizing mutation coefficient (hPDE5 mutants [1]) | Vardenafil Destabilizing mutation coefficient (hPDE5 mutants [1]) | GFP by FACS, Sildenafil 0 μM (DMSO) (hPDE5 mutants [1]) | GFP by FACS, Vardenafil 0 μM (DMSO) (hPDE5 mutants [1]) | Vardenafil Stabilization ratio (hPDE5 mutants [2]) | Sildenafil Stabilization ratio (hPDE5 mutants [2]) | GFP by FACS, Sildenafil 10 μM (hPDE5 mutants [2]) | GFP by FACS, Vardenafil 1 μM (hPDE5 mutants [2]) | GFP protein levels (western blot) (hPDE5 mutants [3]) | MFI (hPDE5 mutants [1]; Tadalafil 11.11 μM) | MFI (hPDE5 mutants [1]; Tadalafil 33.33 μM) | MFI (hPDE5 mutants [1]; Tadalafil 100 μM) | MFI (hPDE5 mutants [1]; Tadalafil 1000 μM) | MFI (hPDE5 mutants [2]; [4]) | MFI (hPDE5 mutants [2]; [5]) | MFI (hPDE5 mutants [2]; [6]) | MFI (hPDE5 mutants [2]; [7]) | MFI (hPDE5 mutants [2]; [8]) | MFI (hPDE5 mutants [2]; [9]) | MFI (hPDE5 mutants [2]; [10]) | other results |
| --- | --- | --- | --- | --- | --- | --- | --- | --- | --- | --- | --- | --- | --- | --- | --- | --- | --- | --- | --- | --- | --- |
| OT-001188: hPDE5 R732V AcGFP construct | 0.19 | 0.93 | 189 | 150 | 3.38 | 0.6 | 113 | 507 | Modest ligand dependent stabilization of GFP levels |  |  |  |  |  |  |  |  |  |  |  |  |
| OT-001189: hPDE5 R732I AcGFP construct | 0.2 | 0.94 | 201 | 151 | 3.89 | 0.85 | 170 | 587 | Modest ligand dependent stabilization of GFP levels | 2746 | 3970 | 5487 | 5487 | 1810 | 3356 | 14531 | 17645 | 24322 | 24322 | 579 | MFI (hPDE5 mutants [2]; [11]): 612; MFI (hPDE5 mutants [2]; [12]): 1709; MFI (hPDE5 mutants [2]; [13]): 2733; MFI (hPDE5 mutants [2]; [14]): 4197; MFI (hPDE5 mutants [2]; [15]): 4197; MFI (hPDE5 mutants [2]; [16]): 498 |
| OT-001190: hPDE5 R732P AcGFP construct | 0.38 | 2.2 | 379 | 355 | 0.87 | 0.95 | 361 | 310 | strong stabilization of GFP levels |  |  |  |  |  |  |  |  |  |  |  |  |
| OT-001191: hPDE5 R732F AcGFP construct | 0.24 | 1.17 | 233 | 189 | 4.99 | 1.51 | 351 | 943 | Modest ligand dependent stabilization of GFP levels | 4734 | 5293 | 5867 | 5867 | 2188 | 8468 | 14705 | 17021 | 20693 | 20693 | 688 | MFI (hPDE5 mutants [2]; [11]): 916; MFI (hPDE5 mutants [2]; [12]): 3555; MFI (hPDE5 mutants [2]; [13]): 4427; MFI (hPDE5 mutants [2]; [14]): 5449; MFI (hPDE5 mutants [2]; [15]): 5449; MFI (hPDE5 mutants [2]; [16]): 631 |
| OT-001192: hPDE5 R732W AcGFP construct | 0.25 | 1.87 | 248 | 301 | 0.59 | 0.64 | 158 | 179 | strong stabilization of GFP levels |  |  |  |  |  |  |  |  |  |  |  |  |
| OT-001193: hPDE5 R732Y AcGFP construct | 0.4 | 1.88 | 397 | 302 | 1.14 | 1.63 | 648 | 345 | strong stabilization of GFP levels |  |  |  |  |  |  |  |  |  |  |  |  |
| OT-001195: hPDE5 R732H AcGFP construct | 0.36 | 1.91 | 352 | 308 | 1.06 | 2.02 | 710 | 328 | strong stabilization of GFP levels |  |  |  |  |  |  |  |  |  |  |  |  |
| OT-001196: hPDE5 R732S AcGFP construct | 0.77 | 3.52 | 760 | 566 | 0.7 | 0.98 | 746 | 399 | strong stabilization of GFP levels |  |  |  |  |  |  |  |  |  |  |  |  |
| OT-001197: hPDE5 R732T AcGFP construct | 0.28 | 1.46 | 276 | 235 | 1.15 | 1.98 | 546 | 270 | strong stabilization of GFP levels | 12843 | 17164 | 21113 | 21113 | 2854 | 6862 | 41788 | 48946 | 67364 | 67364 | 856 | MFI (hPDE5 mutants [2]; [11]): 1041; MFI (hPDE5 mutants [2]; [12]): 6896; MFI (hPDE5 mutants [2]; [13]): 12407; MFI (hPDE5 mutants [2]; [14]): 21258; MFI (hPDE5 mutants [2]; [15]): 21258; MFI (hPDE5 mutants [2]; [16]): 825 |
| OT-001198: hPDE5 R732D AcGFP construct | 0.3 | 1.83 | 298 | 294 | 1.44 | 1.32 | 394 | 422 | strong stabilization of GFP levels | 10583 | 16956 | 22630 | 22630 | 4336 | 7350 | 44499 | 50822 | 70645 | 70645 | 1192 | MFI (hPDE5 mutants [2]; [11]): 1270; MFI (hPDE5 mutants [2]; [12]): 6171; MFI (hPDE5 mutants [2]; [13]): 13971; MFI (hPDE5 mutants [2]; [14]): 21120; MFI (hPDE5 mutants [2]; [15]): 21120; MFI (hPDE5 mutants [2]; [16]): 1163 |
| OT-001199: hPDE5 R732E AcGFP construct | 0.3 | 1.71 | 295 | 276 | 0.77 | 1.07 | 316 | 212 | strong stabilization of GFP levels |  |  |  |  |  |  |  |  |  |  |  |  |
| OT-001200: hPDE5 R732Q AcGFP construct | 0.36 | 1.89 | 353 | 305 | 0.95 | 1.57 | 553 | 289 | strong stabilization of GFP levels |  |  |  |  |  |  |  |  |  |  |  |  |
| OT-001201: hPDE5 R732N AcGFP construct | 0.32 | 1.94 | 315 | 313 | 0.93 | 1.64 | 516 | 290 | strong stabilization of GFP levels |  |  |  |  |  |  |  |  |  |  |  |  |
